To fix the notation:
B1: IgG1-F426 (antibody)
heavy: QVQLQESGPGLVKPSETLSLTCAVSGHSISHDHAWSWVRQPPGEGLEWIGFISYSGITNYNPSLQGRVTISRDNSKNTLYLQMNSLRAEDTAVYYCARSLARTTAMDYWGEGTLVTVSSASTKGPSVFPLAPSSKSTSGGTAALGCLVKDYFPEPVTVSWNSGALTSGVHTFPAVLQSSGLYSLSSVVTVPSSSLGTQTYICNVNHKPSNTKVDKKVEPKSCDKTHTCPPCPAPELLGGPSVFLFPPKPKDTLMISRTVEVTCVVVDVSHEDPEVKFNWYVDGVEVHNAKTKPREEQYNSTYRVVSVLQVLHQDWLNGKEYKCKVSNKALPAPIEKTISKAKGQPREPQVYTLPPSRDELTKNQVSLTCLVKGFYPSDIAVEWESNGQPENNYKTTPPVLDSDGSFFLYSKLTVDKSRWQQGNVFSCSVMHEALHYHYTQKSLSLSP
light: not shown
notes: EU numbering; copies: 2 + 2
B2: IgG1-F427 (antibody)
heavy: QVQLQESGPGLVKPSETLSLTCAVSGHSISHDHAWSWVRQPPGEGLEWIGFISYSGITNYNPSLQGRVTISRDNSKNTLYLQMNSLRAEDTAVYYCARSLARTTAMDYWGEGTLVTVSSASTKGPSVFPLAPSSKSTSGGTAALGCLVKDYFPEPVTVSWNSGALTSGVHTFPAVLQSSGLYSLSSVVTVPSSSLGTQTYICNVNHKPSNTKVDKKVEPKSCDKTHTCPPCPAPELLGGPSVFLFPPKPKDTLYISRTVEVTCVVVDVSHEDPEVKFNWYVDGVEVHNAKTKPREEQYNSTYRVVSVLQVLHQDWLNGKEYKCKVSNKALPAPIEKTISKAKGQPREPQVYTLPPSRDELTKNQVSLTCLVKGFYPSDIAVEWESNGQPENNYKTTPPVLDSDGSFFLYSKLTVDKSRWQQGNVFSCSVVHEALHYHYTQKSLSLSP
light: not shown
notes: EU numbering; copies: 2 + 2
B3: IgG1-F428 (antibody)
heavy: QVQLQESGPGLVKPSETLSLTCAVSGHSISHDHAWSWVRQPPGEGLEWIGFISYSGITNYNPSLQGRVTISRDNSKNTLYLQMNSLRAEDTAVYYCARSLARTTAMDYWGEGTLVTVSSASTKGPSVFPLAPSSKSTSGGTAALGCLVKDYFPEPVTVSWNSGALTSGVHTFPAVLQSSGLYSLSSVVTVPSSSLGTQTYICNVNHKPSNTKVDKKVEPKSCDKTHTCPPCPAPELLGGPSVFLFPPKPKDTLYISRTVEVTCVVVDVSHEDPEVKFNWYVDGVEVHNAKTKPREEQYNSTYRVVSVLQVLHQDWLNGKEYKCKVSNKALPAPIEKTISKAKGQPREPQVYTLPPSRDELTKNQVSLTCLVKGFYPSDIAVEWESNGQPENNYKTTPPVLDSDGSFFLYSKLTVDKSRWQQGNVFSCSVLHEALHYHYTQKSLSLSP
light: not shown
notes: EU numbering; copies: 2 + 2
B4: IgG1-F430 (antibody)
heavy: QVQLQESGPGLVKPSETLSLTCAVSGHSISHDHAWSWVRQPPGEGLEWIGFISYSGITNYNPSLQGRVTISRDNSKNTLYLQMNSLRAEDTAVYYCARSLARTTAMDYWGEGTLVTVSSASTKGPSVFPLAPSSKSTSGGTAALGCLVKDYFPEPVTVSWNSGALTSGVHTFPAVLQSSGLYSLSSVVTVPSSSLGTQTYICNVNHKPSNTKVDKKVEPKSCDKTHTCPPCPAPELLGGPSVFLFPPKPKDTLYISRTVEVTCVVVDVSHEDPEVKFNWYVDGVEVHNAKTKPREEQYNSTYRVVSVLQVLHQDWLNGKEYKCKVSNKALPAPIEKTISKAKGQPREPQVYTLPPSRDELTKNQVSLTCLVKGFYPSDIAVEWESNGQPENNYKTTPPVLDSDGSFFLYSKLTVDKSRWQQGNVFSCSVYHEALHYHYTQKSLSLSP
light: not shown
notes: EU numbering; copies: 2 + 2
B5: IgG1-F429 (antibody)
heavy: QVQLQESGPGLVKPSETLSLTCAVSGHSISHDHAWSWVRQPPGEGLEWIGFISYSGITNYNPSLQGRVTISRDNSKNTLYLQMNSLRAEDTAVYYCARSLARTTAMDYWGEGTLVTVSSASTKGPSVFPLAPSSKSTSGGTAALGCLVKDYFPEPVTVSWNSGALTSGVHTFPAVLQSSGLYSLSSVVTVPSSSLGTQTYICNVNHKPSNTKVDKKVEPKSCDKTHTCPPCPAPELLGGPSVFLFPPKPKDTLYISRTVEVTCVVVDVSHEDPEVKFNWYVDGVEVHNAKTKPREEQYNSTYRVVSVLQVLHQDWLNGKEYKCKVSNKALPAPIEKTISKAKGQPREPQVYTLPPSRDELTKNQVSLTCLVKGFYPSDIAVEWESNGQPENNYKTTPPVLDSDGSFFLYSKLTVDKSRWQQGNVFSCSVMHEALHYHYTQKSLSLSP
light: not shown
notes: EU numbering; copies: 2 + 2
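Note: antibodies captured on a Protein L sensor chip with human FcRn injected as analyte, KD calculated from fitted association and dissociation rate constants.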

In this assay the target is T1, human FcRn (soluble human FcRn complexed with β2-microglobulin) (human, UniProt P61769 21-119, limits assumed).
T1 construct: also called hFcRn
T1 sequence (chain, as listed by the source limits assumed, chain 1 of 2): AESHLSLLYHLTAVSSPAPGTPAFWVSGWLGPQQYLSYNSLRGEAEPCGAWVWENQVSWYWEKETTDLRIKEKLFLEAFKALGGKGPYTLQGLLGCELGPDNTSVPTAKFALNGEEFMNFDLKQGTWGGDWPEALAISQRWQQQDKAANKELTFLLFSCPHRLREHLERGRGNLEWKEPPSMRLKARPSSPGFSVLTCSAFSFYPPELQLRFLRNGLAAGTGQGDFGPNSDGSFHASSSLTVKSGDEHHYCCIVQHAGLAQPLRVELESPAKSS
T1 sequence (P61769 21-119 limits assumed, chain 2 of 2): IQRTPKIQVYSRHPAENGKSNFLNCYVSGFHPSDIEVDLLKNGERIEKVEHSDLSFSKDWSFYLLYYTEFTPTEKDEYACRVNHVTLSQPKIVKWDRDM
The assay is described as follows: SPR, pH 7.0. (In general: Surface plasmon resonance follows binding to a sensor surface in real time, without labels.)
Turning to B1, the equilibrium dissociation constant (Kd) (in general, a measure of binding affinity in units of concentration) amounted to 84 nM. Under B2 stands 110 nM; under B3, 80 nM. For B4, the Kd was 81 nM. For B5, the Kd is 37 nM.
